Kd data for two molecules are collected here from paper doi:10.1101/2024.12.23.630039 (2024).

Like-named read-outs stand apart in the source and are kept apart here.

Assay [1] has as its target T1, HLA-B*07:02 heavy chain with β2-microglobulin (MHC-I monomer, peptide groove as the binding site) (human | ).
In assay [2] the target is T1, HLA-B*07:02 heavy chain with …. In words: predicted/cited value [23].

For orientation: Kd means the constant that tells how readily two partners part at equilibrium. In assay [1], RPELVRPAL [high-affinity peptide for HLA-B*07:02 (Table 1)] showed a Kd of 4.38 nM.
Take RKELVRPAL [temperature-sensitive template peptide for HLA-B*07:02 (RKELVRPAL)]: the Kd in assay [2] is 4120 nM.
